Experimental data: article PMC3575409, “Identification of a Novel Protein-Protein Interaction Motif Mediating Interaction of GPCR-Associated Sorting Proteins with G Protein-Coupled Receptors” (PLoS ONE, 2013)

B1: GASP-2: member of the GASP family, two GASP motifs (protein)
chain: MTGAEIEPSAQAKPEKKAGEEVIAGPERENDVPLVVRPKVRTQATTGARPKTETKSVPAARPKTEAQAMSGARPKTEVQVMGGARPKTEAQGITGARPKTDARAVGGARSKTDAKAIPGARPKDEAQAWAQSEFGTEAVSQAEGVSQTNAVAWPLATAESGSVTKSKGLSMDRELVNVDAETFPGTQGQKGIQPWFGPGEETNMGSWCYSRPRAREEASNESGFWSADETSTASSFWTGEETSVRSWPREESNTRSRHRAKHQTNPRSRPRSKQEAYVDSWSGSEDEASNPFSFWVGENTNNLFRPRVREEANIRSKLRTNREDCFESESEDEFYKQSWVLPGEEANSRFRHRDKEDPNTALKLRAQKDVDSDRVKQEPRFEEEVIIGSWFWAEKEASLEGGASAICESEPGTEEGAIGGSAYWAEEKSSLGAVAREEAKPESEEEAIFGSWFWDRDEACFDLNPCPVYKVSDRFRDAAEELNASSRPQTWDEVTVEFKPGLFHGVGFRSTSPFGIPEEASEMLEAKPKNLELSPEGEEQESLLQPDQPSPEFTFQYDPSYRSVREIREHLRARESAESESWSCSCIQCELKIGSEEFEEFLLLMDKIRDPFIHEISKIAMGMRSASQFTRDFIRDSGVVSLIETLLNYPSSRVRTSFLENMIHMAPPYPNLNMIETFICQVCEETLAHSVDSLEQLTGIRMLRHLTMTIDYHTLIANYMSGFLSLLTTANARTKFHVLKMLLNLSENPAVAKKLFSAKALSIFVGLFNIEETNDNIQIVIKMFQNISNIIKSGKMSLIDDDFSLEPLISAFREFEELAKQLQAQIDNQNDPEVGQQS
modifications: [35S]-methionine labelled
B2: mutant C: derived from mutant 924–1395 by deletion of 45 AA from the C-terminus (protein, UniProt Q5JY77 924-1350, looked up, fragment)
chain: CCVSKPEDDEEMIVESWFWSRDKAIKETGTVATCESKPENEEGAIVGSWFEAEDEVDNRTDNGSNCGSRTLADEDEAIVGSWFWAGDEAHFESNPSPVFRAICRSTCSVEQEPDPSRRPQSWEEVTVQFKPGPWGRVGFPSISPFRFPKEAASLFCEMFGGKPRNMVLSPEGEDQESLLQPDQPSPEFPFQYDPSYRSVQEIREHLRAKESTEPESSSCNCIQCELKIGSEEFEELLLLMEKIRDPFIHEISKIAMGMRSASQFTRDFIRDSGVVSLIETLLNYPSSRVRTSFLENMIRMAPPYPNLNIIQTYICKVCEETLAYSVDSPEQLSGIRMIRHLTTTTDYHTLVANYMSGFLSLLATGNAKTRFHVLKMLLNLSENLFMTKELLSAEAVSEFIGLFNREETNDNIQIVLAIFENIGNNIK
B3: GASP-7: member of the second GASP subfamily, without GASP motif (protein)
chain: MGRTREAGCVAAGVVIGAGACYCVYRLAWGRDENEKIWDEDEESTDTSEIGVETVKGAKTNAGAGSGAKLQGDSEVKPEVSLGLEDCPGVKEKAHSGSHSGGGLEAKAKALFNTLKEQASAKAGKGARVGTISGNRTLAPSLPCPGGRGGGCHPTRSGSRAGGRASGKSKGKARSKSTRAPATTWPVRRGKFNFPYKIDDILSAPDLQKVLNILERTNDPFIQEVALVTLGNNAAYSFNQNAIRELGGVPIIAKLIKTKDPIIREKTYNALNNLSVNAENQGKIKTYISQVCDDTMVCRLDSAVQMAGLRLLTNMTVTNHYQHLLSYSFPDFFALLFLGNHFTKIQIMKLIINFTENPAMTRELVSCKVPSELISLFNKEWDREILLNILTLFENINDNIKNEGLASSRKEFSRSSLFFLFKESGVCVKKIKALANHNDLVVKVKVLKVLTKL
modifications: [35S]-methionine labelled
B4: mutant 380–1395: truncated mutant of GASP-1 that lacks the N-terminal part (protein)
chain: MTKEEAKTKARARAKQEARSEEEALIGTWFWATDESSMADEASIESSLQVEDESIIGSWFWTEEEASMGTGASSKSRPRTDGERIGDSLFGAREKTSMKTGAEATSESILAADDEQVIIGSWFWAGEEVNQEAEEETIFGSWFWVIDAASVESGVGVSCESRTRSEEEEVIGPWFWSGEQVDIEAGIGEEARPGAEEETIFGSWFWAENQTYMDCRAETSCDTMQGAEEEEPIIGSWFWTRVEACVEGDVNSKSSLEDKEEAMIPCFGAKEEVSMKHGTGVRCRFMAGAEETNNKSCFWAEKEPCMYPAGGGSWKSRPEEEEDIVNSWFWSRKYTKPEAIIGSWLWATEESNIDGTGEKAKLLTEEETIINSWFWKEDEAISEATDREESRPEAEEGDIIGSWFWAGEEDRLEPAAETREEDRLAAEKEGIVGSWFGAREETIRREAGSCSKSSPKAEEEEVIIGSWFWEEEASPEAVAGVGFESKPGTEEEEITVGSWFWPEEEASIQAGSQAVEEMESETEEETIFGSWFWDGKEVSEEAGPCCVSKPEDDEEMIVESWFWSRDKAIKETGTVATCESKPENEEGAIVGSWFEAEDEVDNRTDNGSNCGSRTLADEDEAIVGSWFWAGDEAHFESNPSPVFRAICRSTCSVEQEPDPSRRPQSWEEVTVQFKPGPWGRVGFPSISPFRFPKEAASLFCEMFGGKPRNMVLSPEGEDQESLLQPDQPSPEFPFQYDPSYRSVQEIREHLRAKESTEPESSSCNCIQCELKIGSEEFEELLLLMEKIRDPFIHEISKIAMGMRSASQFTRDFIRDSGVVSLIETLLNYPSSRVRTSFLENMIRMAPPYPNLNIIQTYICKVCEETLAYSVDSPEQLSGIRMIRHLTTTTDYHTLVANYMSGFLSLLATGNAKTRFHVLKMLLNLSENLFMTKELLSAEAVSEFIGLFNREETNDNIQIVLAIFENIGNNIKKETVFSDDDFNIEPLISAFHKVEKFAKELQGKTDNQNDPEGDQEN
modifications: [35S]-methionine labelled
B5: mutant D: derived from mutant 924–1395 by deletion of 95 AA from the C-terminus (protein, UniProt Q5JY77 924-1300, looked up, fragment)
chain: CCVSKPEDDEEMIVESWFWSRDKAIKETGTVATCESKPENEEGAIVGSWFEAEDEVDNRTDNGSNCGSRTLADEDEAIVGSWFWAGDEAHFESNPSPVFRAICRSTCSVEQEPDPSRRPQSWEEVTVQFKPGPWGRVGFPSISPFRFPKEAASLFCEMFGGKPRNMVLSPEGEDQESLLQPDQPSPEFPFQYDPSYRSVQEIREHLRAKESTEPESSSCNCIQCELKIGSEEFEELLLLMEKIRDPFIHEISKIAMGMRSASQFTRDFIRDSGVVSLIETLLNYPSSRVRTSFLENMIRMAPPYPNLNIIQTYICKVCEETLAYSVDSPEQLSGIRMIRHLTTTTDYHTLVANYMSGFLSLLATGNAKTRFHVLKML

Experiments:
Type in all cases: binding
[1] = tested on: GST-fused TGFβ (type III transforming growth factor β receptor) C-tail; experiment: GST-pull down, TGFβ C-tail; details: non-GPCR control
Description: (§1) cDNAs encoding the cytoplasmic C-tail of 14 GPCRs and 2 one-transmembrane receptors were cloned into the pGEX-2T prokaryotic expression vector downstream the GST sequence. The following pGEX constructs were engineered: pGEX-DOR encoding residues 314–372 of the δ-opioid receptor (referring to Swiss-Prot accession number U10504), pGEX-MOR encoding residues 334–400 of the µ-opioid receptor (L29301), pGEX-KOR encoding residues 326–380 of the κ–opioid receptor (U17298), pGEX-ORL1 encoding residues 315–370 of the opioid receptor-like 1 (X77130), pGEX-M1 encoding residues 414–460 of the muscarinic M1 acetylcholine receptor (X52068), pGEX-M2 encoding residues 436–466 of the muscarinic M2 acetylcholine receptor (M16404), pGEX- ADRB1 encoding residues 373–477 of the β1 adrenergic receptor (J03019), pGEX-ADRB2 encoding residues 322–413 of the β2 adrenergic receptor (P07550), pGEX-CALCR encoding residues 407–490 of the calcitonin receptor (L00587), pGEX-CNR2 encoding residues 295–360 of the cannabinoid type 2 receptor (P34972), pGEX-5HT7 encoding residues 380–445 of the 5-hydroxytryptamine 7 receptor (L21195), pGEX-H2 encoding residues 284–349 of the histamine 2 receptor (S57565), pGEX-TXA2 encoding residues 304–343 of the α isoform of the thromboxane A2 receptor (D38081), pGEX-FZ4 encoding residues 493–537 of the frizzled 4 receptor (AB032417), pGEX-TGFβ encoding residues 805–849 of the type III transforming growth factor b receptor (L07594), pGEX-IGF1 encoding residues 1268–1367 of the insulin growth factor I receptor (X04434). Free GST was produced by using the pGEX-4T3 expression vector without insert. The same plasmid was used to clone the cDNA encoding a central domain of GASP-1, corresponding to amino acids 380 to 1073, downstream the GST sequence. All these plasmids were transformed into the Escherichia coli BL21 strain and expression was induced using 1mM of isopropylthiogalactoside for 2 h at 37°C. Bacteria were then pelleted, resuspended in PBS supplemented with cOmplete protease inhibitors (Roche), lysed at 1.5 kbar using a basic Z cell disrupter (constant system) and finally the lysates were cleared by centrifugation (10,000g, 15 min, 4°C).
(§2) cDNAs encoding GASP-1 and GASP-2 were cloned into the pcDNA3 eukaryotic expression vectors. cDNAs encoding GASP-3, -6, -7, and -9 were subcloned into pcDNA3.1 vectors. All the clones were controlled by DNA sequencing. The in vitro production was performed by using the TNT Quick-coupled Transcription/Translation T7 kit (Promega) in presence of [^35S]-Methionine according to the instructions from the manufacturer.
(§3) GST-fusion proteins were immobilized on glutathione-coupled Sepharose beads (GE Healthcare) for 1 h at 4°C and incubated with [^35S]-labelled in vitro translated GASP proteins or their truncated or mutated forms in ice-cold binding buffer containing: 20 mM Tris-HCl pH 7.4, 150 mM NaCl, 1 mM EDTA, 1 mM DTT, 10% glycerol and 1% Triton X-100. The mixture was incubated for 1 h at 4°C with gentle rocking. The beads were washed five times with the same ice-cold buffer, resuspended in 30 µl SDS-PAGE sample buffer, incubated 10 min at 65°C, and pelleted for 60 s at 3000 g. The supernatants were then analyzed by SDS-PAGE, the gels were stained with Coomassie blue to visualize GST-fusion proteins, dried and analyzed using a Phosphor-imager (Personal Molecular Imager FX, Biorad) to visualize [^35S]-labelled GASPs. Quantification was performed with the Quantity One software (Biorad). GST-pull down quantification data were analyzed using GraphPad Prism 4.03 (GraphPad Software). Quantifications presented are means of at least three independent experiments.

GST-fused GPCR C-tails = experiment: GST-pull down, GPCR C-tails; details: for interaction with GPCR C-tails: twelve GPCR C-tails
Description: as §1, §2
as §3, with “experiments. […]” for “experiments.”

[2] = tested on: GST-fused IGF1 (insulin growth factor I receptor) C-tail; experiment: GST-pull down, IGF1 C-tail; details: non-GPCR control
Description: as §1, §2, §3

GST-fused DOR C-tail = experiment: GST-pull down, DOR C-tail; details: compared with full-length GASP-1
Description: as §1, §2, §3

GST-fused ADRB1 C-tail = experiment: GST-pull down, ADRB1 C-tail; details: compared with full-length GASP-1
Description: as §1, §2, §3

GST-fused M1 C-tail = experiment: GST-pull down, M1 C-tail; details: compared with full-length GASP-1
Description: as §1, §2, §3

Molecule | interaction with TGFβ C-tail [1] | interaction with GPCR C-tails (GST-fused GPCR C-tails) | interaction with IGF1 C-tail [2] | interaction of truncated GASP-1 with DOR C-tail (GST-fused DOR C-tail) | other results
B1 | no interaction was detected | medium to strong interactions | no interaction was detected | – | GASP input retained by GPCR C-tails (GST-fused GPCR C-tails; percent of GASP input): > 10%
B2 | – | – | – | strong interaction | –
B3 | No interaction was detected | weak to medium interactions and weak | No interaction was detected | – | –
B4 | – | – | – | interacted similarly | interaction of truncated GASP-1 with ADRB1 C-tail (words) (GST-fused ADRB1 C-tail): interacted similarly; interaction of truncated GASP-1 with M1 C-tail (words) (GST-fused M1 C-tail): interacted similarly
B5 | – | – | – | completely lost | –
